# Target: murine splenic AA amyloid extract (mouse (endogenous in spleen)) (UniProt P05367)
# Test: co-sedimentation; pulldown with murine splenic AA amyloid extract in the presence of 20 μg non-radiolabeled peptide (competition)
# murine splenic AA amyloid extract (mouse (endogenous in spleen)), sequence (P05367 20-122): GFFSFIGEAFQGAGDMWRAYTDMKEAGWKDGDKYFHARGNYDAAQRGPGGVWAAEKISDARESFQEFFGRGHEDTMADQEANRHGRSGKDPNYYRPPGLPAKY
binder,measurement,value
GGGYSKAQKAQAKQAKQAQKAQKAQAKQAKQAQKAQKAQAKQAKQ [non-radiolabeled peptide p5+14],% of ^99mTc-p5+14 bound in the presence of 20 μg non-radiolabeled peptide,4%
